Experimental data reported in PMC8227628, “DisA Limits RecG Activities at Stalled or Reversed Replication Forks” (Cells, 2021).

Assays:
DisA [1] = biological target: T1, DisA (Bacillus subtilis, UniProt P37573); experiment: TLC of conversion to c-di-AMP; assay type: biochemical; details: 10 mM MgCl2, 100 µM ATP, pH 7.5, 37 °C, no DNA; labelled compound
T1 construct: full length, expressed in E. coli BL21(DE3) pLysS; octamer; C-terminal His tag in the pull-down variant
T1 sequence (P37573 1-360): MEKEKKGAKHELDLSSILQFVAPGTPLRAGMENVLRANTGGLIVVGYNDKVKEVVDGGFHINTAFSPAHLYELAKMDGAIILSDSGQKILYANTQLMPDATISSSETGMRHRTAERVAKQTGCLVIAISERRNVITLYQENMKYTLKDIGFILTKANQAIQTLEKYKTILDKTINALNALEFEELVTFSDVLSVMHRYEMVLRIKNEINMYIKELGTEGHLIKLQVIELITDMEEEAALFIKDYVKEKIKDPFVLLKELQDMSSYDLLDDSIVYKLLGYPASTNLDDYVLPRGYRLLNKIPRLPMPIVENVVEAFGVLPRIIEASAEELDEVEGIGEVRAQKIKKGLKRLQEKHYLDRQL

His-tagged DisA = biological target: T2, His-tagged DisA (B. subtilis, UniProt P37573 1-360); experiment: cell-based or functional assay
T2 sequence (looked up): T1 sequence (P37573 1-360)

DisA [2] = biological target: T3, DisA (Bacillus subtilis, UniProt P37573 1-360); experiment: EMSA; 5 mM ATPgS; 37 C; 0.2% glutaraldehyde before loading; apparent Kd; complexes retained in well; EMSA: 0.1 nM HJ-J3 in buffer B (composition not in material) with 5 mM ATPgS, 15 min, 37 C, 0.2% glutaraldehyde before 6% PAGE in TAE; DNase I: buffer C 50 mM Tris-HCl pH 7.5, 1 mM DTT, 50 mM NaCl, 10 mM MgCl2, 0.05 mg/mL BSA, 5% glycerol, 5 mM ATPgS, 37 C; details: protein: recombinant; chain copies: 8; label: 32P (gamma-32P, 5' end of one strand); four-way Holliday junction of 4 strands, 1 copy each, heterologous arms
T3 sequence: T1 sequence (P37573 1-360)

RecG = biological target: T4, RecG (Bacillus subtilis, UniProt O34942 1-682); experiment: EMSA; 5 mM ATPgS; 37 C; 0.2% glutaraldehyde before loading; apparent Kd; G-I and minor G-II complexes; EMSA: 0.1 nM HJ-J3 in buffer B (composition not in material) with 5 mM ATPgS, 15 min, 37 C, 0.2% glutaraldehyde before 6% PAGE in TAE; DNase I: buffer C 50 mM Tris-HCl pH 7.5, 1 mM DTT, 50 mM NaCl, 10 mM MgCl2, 0.05 mg/mL BSA, 5% glycerol, 5 mM ATPgS, 37 C; details: protein: recombinant; label: 32P (gamma-32P, 5' end of one strand); four-way Holliday junction of 4 strands, 1 copy each, heterologous arms
T4 sequence: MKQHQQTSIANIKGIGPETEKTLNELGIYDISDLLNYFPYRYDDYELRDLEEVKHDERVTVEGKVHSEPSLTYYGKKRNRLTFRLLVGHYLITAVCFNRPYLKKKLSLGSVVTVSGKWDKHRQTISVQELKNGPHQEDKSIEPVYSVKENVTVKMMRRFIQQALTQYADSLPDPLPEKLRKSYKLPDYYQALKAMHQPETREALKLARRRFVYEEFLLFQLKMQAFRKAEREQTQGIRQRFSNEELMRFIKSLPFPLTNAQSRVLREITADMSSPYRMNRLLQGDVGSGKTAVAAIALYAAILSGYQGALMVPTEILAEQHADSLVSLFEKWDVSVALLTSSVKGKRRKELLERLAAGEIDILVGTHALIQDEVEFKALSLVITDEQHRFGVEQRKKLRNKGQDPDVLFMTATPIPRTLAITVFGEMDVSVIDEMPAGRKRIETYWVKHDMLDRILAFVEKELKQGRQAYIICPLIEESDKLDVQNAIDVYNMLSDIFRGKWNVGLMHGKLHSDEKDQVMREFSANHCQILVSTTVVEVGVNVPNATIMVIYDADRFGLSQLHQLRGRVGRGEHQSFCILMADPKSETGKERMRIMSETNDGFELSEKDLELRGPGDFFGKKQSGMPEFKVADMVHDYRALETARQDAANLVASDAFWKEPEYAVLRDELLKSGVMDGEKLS

DisA;RecG = biological target: T5, DisA;RecG (Bacillus subtilis;Bacillus subtilis, UniProt P37573;O34942 1-360;1-682, |); experiment: DNase I footprinting; 5 mM ATPgS, 10 mM Mg2+; 60 nM RecG with increasing DisA; shorter protection on both sides of junction; ternary complex proposed; EMSA: 0.1 nM HJ-J3 in buffer B (composition not in material) with 5 mM ATPgS, 15 min, 37 C, 0.2% glutaraldehyde before 6% PAGE in TAE; DNase I: buffer C 50 mM Tris-HCl pH 7.5, 1 mM DTT, 50 mM NaCl, 10 mM MgCl2, 0.05 mg/mL BSA, 5% glycerol, 5 mM ATPgS, 37 C; details: protein: recombinant;recombinant; tags: ;; chain copies: 8;1; label: 32P (gamma-32P, 5' end of one strand); four-way Holliday junction of 4 strands, 1 copy each, heterologous arms
T5 sequence 1: T1 sequence (P37573 1-360)
T5 sequence 2: T4 sequence

For Nc1ncnc2c1ncn2[C@@H]1O[C@@H]2COP(=O)(O)O[C@H]3[C@@H](O)[C@H](n4cnc5c(N)ncnc54)O[C@@H]3COP(=O)(O)O[C@H]2[C@H]1O [c-di-AMP], which “TLC of [α^32P]-ATP conversion to c-di-AMP” value (DisA [1]) is on record?
The value was “it efficiently converted two ATP molecules into c-di-AMP”.

B1: native RecG (natural protein, B. subtilis, UniProt O34942 1-682, looked up)
chain: T4 sequence
Which “inhibition of the DAC activity (c-di-AMP synthesis) of DisA (25 nM) with HJ-J3 DNA (125 nM) and 100 µM ATP, RecG 7 to 30 nM” value (His-tagged DisA) does the source give for B1 here?
The value was ~11 fold.

B2: HJ-J3 DNA (fixed Holliday junction) (structured_DNA)
DNA 1: CGCAAGCGACAGGAACCTCGAGAAGCTTCCGGTAGCAGCCTGAGCGGTGGTTGAATTCCTCGAGGTTCCTGTCGCTTGCG
DNA 2: CGCAAGCGACAGGAACCTCGAGGAATTCAACCACCGCTCAACTCAACTGCAGTCTAGACTCGAGGTTCCTGTCGCTTGCG
DNA 3: CGCAAGCGACAGGAACCTCGAGTCTAGACTGCAGTTGAGTCCTTGCTAGGACGGATCCCTCGAGGTTCCTGTCGCTTGCG
DNA 4: CGCAAGCGACAGGAACCTCGAGGGATCCGTCCTAGCAAGGGGCTGCTACCGGAAGCTTCTCGAGGTTCCTGTCGCTTGCG
For B2, which Kd (DisA [2]) is on record?
Its Kd is 17 ± 1 nM.

What about the Kd (RecG) of the same molecule?
The Kd was 4 ± 0.3 nM.

Does B2 bind (DisA;RecG)?
Result: binds
